Measurements taken from publication PMC3942289, “Characterization of Ten Heterotetrameric NDP-Dependent Acyl-CoA Synthetases of the Hyperthermophilic Archaeon Pyrococcus furiosus” (Archaea, 2014).

How the values were obtained:
Assay type in all cases: biochemical, Pyrococcus furiosus
[1] = substrate: CC(=O)SCCNC(=O)CCNC(=O)[C@H](O)C(C)(C)COP(=O)(O)OP(=O)(O)OC[C@H]1O[C@@H](n2cnc3c(N)ncnc32)[C@H](O)[C@@H]1OP(=O)(O)O; test: DTNB assay of released CoASH, 96-well; settings: forward reaction, 2 mM ADP, 10 mM K2HPO4, 2 mM MgCl2, pH 7.0, 80°C
Excerpt: (§1) DTNB assay of released CoASH, 96-well on ACS2-A

[2] = substrate: CC(C)(COP(=O)(O)OP(=O)(O)OC[C@H]1O[C@@H](n2cnc3c(N)ncnc32)[C@H](O)[C@@H]1OP(=O)(O)O)[C@@H](O)C(=O)NCCC(=O)NCCSC(=O)Cc1ccccc1; test: DTNB assay of released CoASH, 96-well; settings: forward reaction, 2 mM ADP, 10 mM K2HPO4, 2 mM MgCl2, pH 7.0, 80°C
Excerpt: as §1

[3] = substrate: CC(C)CC(=O)SCCNC(=O)CCNC(=O)[C@H](O)C(C)(C)COP(=O)(O)OP(=O)(O)OC[C@H]1O[C@@H](n2cnc3c(N)ncnc32)[C@H](O)[C@@H]1OP(=O)(O)O; test: DTNB assay of released CoASH, 96-well; settings: forward reaction, 2 mM ADP, 10 mM K2HPO4, 2 mM MgCl2, pH 7.0, 80°C
Excerpt: as §1

[4] = substrate: CC(=O)SCCNC(=O)CCNC(=O)[C@H](O)C(C)(C)COP(=O)(O)OP(=O)(O)OC[C@H]1O[C@@H](n2cnc3c(N)ncnc32)[C@H](O)[C@@H]1OP(=O)(O)O; test: DTNB assay of released CoASH, 96-well; settings: forward reaction, 2 mM ADP, 10 mM K2HPO4, 2 mM MgCl2, pH 7.0, 80°C; remark: listed apart in the source
Excerpt: DTNB assay of released CoASH, 96-well on ACS4-A

[5] = substrate: CC(=O)SCCNC(=O)CCNC(=O)[C@H](O)C(C)(C)COP(=O)(O)OP(=O)(O)OC[C@H]1O[C@@H](n2cnc3c(N)ncnc32)[C@H](O)[C@@H]1OP(=O)(O)O; test: DTNB assay of released CoASH, 96-well; settings: forward reaction, 2 mM ADP, 10 mM K2HPO4, 2 mM MgCl2, pH 7.0, 80°C; remark: listed apart in the source
Excerpt: DTNB assay of released CoASH, 96-well on ACS3-A

[6] = substrate: CC(=O)SCCNC(=O)CCNC(=O)[C@H](O)C(C)(C)COP(=O)(O)OP(=O)(O)OC[C@H]1O[C@@H](n2cnc3c(N)ncnc32)[C@H](O)[C@@H]1OP(=O)(O)O; test: DTNB assay of released CoASH, 96-well; settings: forward reaction, 2 mM ADP, 10 mM K2HPO4, 2 mM MgCl2, pH 7.0, 80°C; remark: listed apart in the source
Excerpt: DTNB assay of released CoASH, 96-well on ACS1-A

[7] = substrate: Nc1nc2c(ncn2[C@@H]2O[C@H](COP(=O)(O)OP(=O)(O)OP(=O)(O)O)[C@@H](O)[C@H]2O)c(=O)[nH]1; test: colorimetric phosphate release, 96-well; settings: reverse reaction (acid + CoA), 20 mM acid substrate, 0.5 mM CoA, 2 mM MgCl2, pH 7.0, 80°C
[8] = substrate: Nc1ncnc2c1ncn2[C@@H]1O[C@H](COP(=O)(O)OP(=O)(O)OP(=O)(O)O)[C@@H](O)[C@H]1O; test: colorimetric phosphate release, 96-well; settings: reverse reaction (acid + CoA), 20 mM acid substrate, 0.5 mM CoA, 2 mM MgCl2, pH 7.0, 80°C

B1: ACS2-A (Pyrococcus furiosus DSM 3638) (protein)
chain 1: MLDYFFNPRGIAVIGASNDPKKLGYEVFKNLKEYQGGKVYPVNVREEEVQGVKAYKSVKEIPGEVDLAIIVVPKKFVKQTLIECGEKGVKGVVIITAGFGETGEEGKREEKELVEIAHKYGMRIIGPNCVGIMNTHANLNATFITVAKKGNVAFISQSGALGAGIVYKTIKEDIGFSKFISVGNMADLDFADLMEYLADTQEDKAIALYIEGIKDGRRFIEVAKKVTKKKPVIALKAGKSESGSRAAASHTGSLAGSWKIYEAAFKQSGVLVANTIDEMLSMARAFTQPLPKGNRVAIMTNAGGPGVLTADEIDKRGLKLANLEEKTIEELRSFLPPMAAVKNPVDMIASARGEDYYRTAKLLLQDPNVDILIAICVVPTFAGMTPTEHAEGIIRAVKEVNNGKPVLALFMAGYVSEKAKELLEKNGIPTYERPEDVAAAAYALVQQAKNVGGGVNG
chain 2: MKGEALKIIEEVLAQGRTAMVEYEAKQVLKAYGLPVPEEKLAKTLDEALKYAEEIGYPVAMKLMSPQILHKSDAKVVMLNIKSPEELKKKWEEIHENARKYRPDAEIFGVLIAPMLKPGREVIIGVTEDPQFGHAIMFGLGGIFVEILKDVTFRIIPITEKDARKMITEIKAYPILAGARGEEPADIEAIVDMLLKVSKLVDDLKDYIKEMDLNPVFVYRKGEGAVVVDARIILKG
notes: alpha (pET24a) and beta-A (pET21b) coexpressed in E. coli BL21(DE3) pRIL, untagged, heat-treated and desalted; alpha2beta2 ~140 kDa; Printed PF1837 primers identical to PF1838 (probable misprint)
Question: Which results are given for B1?
Answer: Km [1]: 350 ± 2 µM; kcat/Km [1]: 114000 M⁻¹ s⁻¹; Km [2]: 3.32 ± 1.32 mM; kcat/Km [2]: 150000 M⁻¹ s⁻¹; Km [3]: 466 ± 119 µM; kcat/Km [3]: 109000 M⁻¹ s⁻¹

B2: ACS4-A (Pyrococcus furiosus DSM 3638) (protein)
chain 1: MRYFFYPNSVAIFGSFREGAIAREILRNIVEGGFEGKIIPVNPKGGEVEVAGKKFNIKEKLDEPVDVSIIAIPAKLVPELIRGLKGLTKGAVVISAGFSEVGNVELEKELIKAAKEAGIRVIGPNCAGIFGVHAKFYGSFEVRVNPGGLALISQSGAFGGAALAMGNEEGIGFSAFVSYGNAADLDESDFLRFFADDENTRVIGLYIEGVKDGRKFLDALRYAASKKPVIILKAGKSRAGARAAASHTGSLAGSYEIYRAAFRQAGAIEVEEMEELFDAAKAFEMYERAGRRVAIITNSGGPGVLATDKLERLGLEIAKLTEETVEELRSFLPPQCSVKNPVDLIADADYERYKRAIEVVCRDENVDAILVICVPPIFIPSEEIARAVVEANCDKPIIVNFMAGELVREGIKILESKKIKNFPTPERAAKALYWLSLRSSSE
chain 2: MKGEALKIIEEVLAQGRTAMVEYEAKQVLKAYGLPVPEEKLAKTLDEALKYAEEIGYPVAMKLMSPQILHKSDAKVVMLNIKSPEELKKKWEEIHENARKYRPDAEIFGVLIAPMLKPGREVIIGVTEDPQFGHAIMFGLGGIFVEILKDVTFRIIPITEKDARKMITEIKAYPILAGARGEEPADIEAIVDMLLKVSKLVDDLKDYIKEMDLNPVFVYRKGEGAVVVDARIILKG
notes: as for B1
Question: B2 was tested. Which Km [4] did it give?
Answer: 242 ± 46 µM

Question: And the kcat/Km [4]?
Answer: 119000 M⁻¹ s⁻¹

B3: ACS3-A (Pyrococcus furiosus DSM 3638) (protein)
chain 1: MTVNLDFLFYPKSVAVIGASATPGKVGNAIMKSLAANFNGKVYPVNVKEGEIEINGKKFKVYRSIKEIPDEVDVAVIAVPAKFVPDVIDECGEKGVKGAIVISAGFKEAGRADLEEELVKRARKWGIRVVGPNCLGVTNLENGFDCNFNPPERQARPKFGPIAFMSQSGAFGAAILDWAARHEVGMSKFISLGNMADLDESDFMLYLKDDPKTKVITAYIEGVKDGRKFFNAAKETTKVKPVIILKAGRTEAGAKAAASHTGSLAGSYKIYQAAFEQTGVLAAKSMRQLFNYAKALAMQSPAKGDRVAIVTNGGGAGVMMSDGLLEAGLKLAEFTEETKEKFRKAIEEGLLPEHMSYKNPVDVIGDAPSSRYETAIRYVLEDPNVDIVVVIALFQSPALDEGIVDVMERVKEYGKPIVFVAPGGEYPERMARKIEEKGIPVFETVEDGVDAVYALIKYGKYLAEL
chain 2: MKGEALKIIEEVLAQGRTAMVEYEAKQVLKAYGLPVPEEKLAKTLDEALKYAEEIGYPVAMKLMSPQILHKSDAKVVMLNIKSPEELKKKWEEIHENARKYRPDAEIFGVLIAPMLKPGREVIIGVTEDPQFGHAIMFGLGGIFVEILKDVTFRIIPITEKDARKMITEIKAYPILAGARGEEPADIEAIVDMLLKVSKLVDDLKDYIKEMDLNPVFVYRKGEGAVVVDARIILKG
notes: as for B1
Question: For B3, which Km [5] is on record?
Answer: 474 ± 165 µM

Question: What about the kcat/Km [5] of the same protein?
Answer: 12000 M⁻¹ s⁻¹

B4: ACS1-A (Pyrococcus furiosus DSM 3638) (protein)
chain 1: MSLEALFNPKSVAVIGASAKPGKIGYAIMKNLIEYGYEGKIYPVNIKGGEIEINGRKFKVYKSVLEIPDEVDMAVIVVPAKFVPQVLEECGQKGVKVVPIISSGFGELGEEGKKVEQQLVETARKYGMRILGPNIFGVVYTPAKLNATFGPTDVLPGPLALISQSGALGIALMGWTILEKIGLSAVVSVGNKADIDDADLLEFFKDDENTRAILIYMEGVKDGRRFMEVAKEVSKKKPIIVIKAGRSERGAKAAASHTGSLAGSDKVYSAAFKQSGVLRAYTIGEAFDWARALSNLPEPQGDNVVIITNGGGIGVMATDAAEEEGLHLYDNLEELKIFANHMPPFGSYKNPVDLTGMADGKSYEGAIRDALAHPEMHSIAVLYCQTAVLDPRELAEIVIREYNESGRKKPLVVAIVGGIEAKEAIDMLNENGIPAYPEPERAIKALSALYKWSKWKAKHKEK
chain 2: MKGEALKIIEEVLAQGRTAMVEYEAKQVLKAYGLPVPEEKLAKTLDEALKYAEEIGYPVAMKLMSPQILHKSDAKVVMLNIKSPEELKKKWEEIHENARKYRPDAEIFGVLIAPMLKPGREVIIGVTEDPQFGHAIMFGLGGIFVEILKDVTFRIIPITEKDARKMITEIKAYPILAGARGEEPADIEAIVDMLLKVSKLVDDLKDYIKEMDLNPVFVYRKGEGAVVVDARIILKG
notes: alpha (pET24a) and beta-A (pET21b) coexpressed in E. coli BL21(DE3) pRIL, untagged (stop codons in primers), heat-treated and desalted; alpha2beta2 ~140 kDa; Printed PF1837 primers are identical to those of PF1838 (probable misprint)
Question: Which Km [6] does the source give for B4 here?
Answer: 137 ± 91 µM

Question: And the kcat/Km [6]?
Answer: 140000 M⁻¹ s⁻¹

Question: And the Km [7]?
Answer: 223 ± 58 µM

Question: And the kcat/Km [7]?
Answer: 10000 M⁻¹ s⁻¹

Question: And the Km [8]?
Answer: 132 ± 19 µM

Question: And the kcat/Km [8]?
Answer: 140000 M⁻¹ s⁻¹
